Data reported in the supplement of paper PMC9112550, “Optimization of the antimicrobial peptide Bac7 by deep mutational scanning” (BMC Biology, 2022).

System: Escherichia coli TOP10
Assay: shrunken log2 fold change of peptide-encoding DNA abundance (4.5 h post-induction vs induction); higher = less antimicrobial activity (less host growth inhibition)
Conditions: time post-induction: 4.5 h; library: site-saturation at positions 5, 18, 19, 20
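Note: peptides expressed intracellularly from a pBAD plasmid library in pooled LB shake-flask culture, induced with 0.3% L-arabinose, DNA abundance read by NGS, three biological replicates, DESeq2 with apeglm shrinkage.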

In the case of RRIRNRPPRLPRPRPRPVRIPRP, the “shrunken log2 fold change” value is reported as 0.0513.

For RRIRRRPPRLPRPRPRPVSNPRP, the “shrunken log2 fold change” value was -0.111.

For RRIRHRPPRLPRPRPRPAEFPRP, the “shrunken log2 fold change” value was 0.108.

For RRIRSRPPRLPRPRPRPAPMPRP, the “shrunken log2 fold change” value was 0.492.

For RRIRQRPPRLPRPRPRPLYCPRP, the “shrunken log2 fold change” value was -0.672.

With RRIRDRPPRLPRPRPRPHIEPRP the “shrunken log2 fold change” value was 0.0695.

RRIRMRPPRLPRPRPRPDSRPRP was tested, and the “shrunken log2 fold change” value was -0.00783.

RRIRCRPPRLPRPRPRPFRRPRP was tested, and the “shrunken log2 fold change” value was -0.237.

In the case of RRIRKRPPRLPRPRPRPLMFPRP, the “shrunken log2 fold change” value is reported as 0.0317.

For RRIRIRPPRLPRPRPRPTNTPRP, the “shrunken log2 fold change” value was -0.45.

With RRIRKRPPRLPRPRPRPLCGPRP the “shrunken log2 fold change” value was 0.367.

RRIRVRPPRLPRPRPRPQNLPRP was tested, and the “shrunken log2 fold change” value was -0.672.

In the case of RRIRQRPPRLPRPRPRPCNYPRP, the “shrunken log2 fold change” value is reported as 0.00177.

In the case of RRIRIRPPRLPRPRPRPWDHPRP, the “shrunken log2 fold change” value is reported as 0.0393.

For RRIRHRPPRLPRPRPRPRCDPRP, the “shrunken log2 fold change” value was 0.128.

RRIRPRPPRLPRPRPRPAKVPRP was tested, and the “shrunken log2 fold change” value was 0.045.

RRIRVRPPRLPRPRPRPFRMPRP was tested, and the “shrunken log2 fold change” value was -0.247.

With RRIRDRPPRLPRPRPRPISTPRP the “shrunken log2 fold change” value was -0.146.

With RRIRKRPPRLPRPRPRPATVPRP the “shrunken log2 fold change” value was 0.0874.

RRIRQRPPRLPRPRPRPTVYPRP was tested, and the “shrunken log2 fold change” value was 0.079.

RRIRQRPPRLPRPRPRPWIIPRP was tested, and the “shrunken log2 fold change” value was -0.329.

RRIRSRPPRLPRPRPRPIHGPRP was tested, and the “shrunken log2 fold change” value was -0.159.

With RRIRDRPPRLPRPRPRPFNHPRP the “shrunken log2 fold change” value was -0.368.

RRIRWRPPRLPRPRPRPSYDPRP was tested, and the “shrunken log2 fold change” value was -0.256.

With RRIRVRPPRLPRPRPRPLDRPRP the “shrunken log2 fold change” value was -0.117.

With RRIRRRPPRLPRPRPRPMPWPRP the “shrunken log2 fold change” value was 0.119.

With RRIRFRPPRLPRPRPRPHEIPRP the “shrunken log2 fold change” value was -0.0536.

With RRIRYRPPRLPRPRPRPTYAPRP the “shrunken log2 fold change” value was 3.45.

In the case of RRIRQRPPRLPRPRPRPCGRPRP, the “shrunken log2 fold change” value is reported as 0.411.

For RRIRHRPPRLPRPRPRPTDWPRP, the “shrunken log2 fold change” value was 0.223.

RRIRTRPPRLPRPRPRPSHGPRP was tested, and the “shrunken log2 fold change” value was 0.0388.

In the case of RRIRMRPPRLPRPRPRPEEVPRP, the “shrunken log2 fold change” value is reported as 0.00922.

RRIRKRPPRLPRPRPRPLHEPRP was tested, and the “shrunken log2 fold change” value was 1.06.

RRIRGRPPRLPRPRPRPDTEPRP was tested, and the “shrunken log2 fold change” value was -0.0629.

With RRIRPRPPRLPRPRPRPSVRPRP the “shrunken log2 fold change” value was 0.129.

In the case of RRIRKRPPRLPRPRPRPPQTPRP, the “shrunken log2 fold change” value is reported as 0.559.

RRIRDRPPRLPRPRPRPMWCPRP was tested, and the “shrunken log2 fold change” value was 0.00673.

In the case of RRIRARPPRLPRPRPRPCTTPRP, the “shrunken log2 fold change” value is reported as 0.184.

In the case of RRIRVRPPRLPRPRPRPFRQPRP, the “shrunken log2 fold change” value is reported as 0.0805.

RRIRGRPPRLPRPRPRPPTFPRP was tested, and the “shrunken log2 fold change” value was 0.572.

For RRIRVRPPRLPRPRPRPEMRPRP, the “shrunken log2 fold change” value was 0.562.

In the case of RRIRARPPRLPRPRPRPAVTPRP, the “shrunken log2 fold change” value is reported as 0.214.

With RRIRPRPPRLPRPRPRPQGRPRP the “shrunken log2 fold change” value was -0.0433.

With RRIRHRPPRLPRPRPRPRPAPRP the “shrunken log2 fold change” value was 0.479.

With RRIRVRPPRLPRPRPRPYILPRP the “shrunken log2 fold change” value was -0.278.

In the case of RRIRQRPPRLPRPRPRPNPHPRP, the “shrunken log2 fold change” value is reported as 0.121.

For RRIRIRPPRLPRPRPRPRWTPRP, the “shrunken log2 fold change” value was 0.0809.

With RRIRLRPPRLPRPRPRPWKKPRP the “shrunken log2 fold change” value was -0.279.

With RRIRCRPPRLPRPRPRPICKPRP the “shrunken log2 fold change” value was 0.0601.

RRIRIRPPRLPRPRPRPEASPRP was tested, and the “shrunken log2 fold change” value was 0.144.

With RRIRCRPPRLPRPRPRPPRCPRP the “shrunken log2 fold change” value was 1.9.

RRIRLRPPRLPRPRPRPICEPRP was tested, and the “shrunken log2 fold change” value was 0.0628.

For RRIRQRPPRLPRPRPRPDYKPRP, the “shrunken log2 fold change” value was -0.0788.

With RRIRHRPPRLPRPRPRPTCEPRP the “shrunken log2 fold change” value was 0.012.

RRIRTRPPRLPRPRPRPNIGPRP was tested, and the “shrunken log2 fold change” value was -0.0888.

In the case of RRIRFRPPRLPRPRPRPVKKPRP, the “shrunken log2 fold change” value is reported as 0.166.

For RRIRARPPRLPRPRPRPMFGPRP, the “shrunken log2 fold change” value was 0.215.

For RRIRDRPPRLPRPRPRPNEMPRP, the “shrunken log2 fold change” value was 0.00902.

For RRIRERPPRLPRPRPRPPVKPRP, the “shrunken log2 fold change” value was 0.0254.

In the case of RRIRFRPPRLPRPRPRPHKCPRP, the “shrunken log2 fold change” value is reported as -0.106.

In the case of RRIRDRPPRLPRPRPRPAVFPRP, the “shrunken log2 fold change” value is reported as -0.0356.

With RRIRWRPPRLPRPRPRPTITPRP the “shrunken log2 fold change” value was -0.335.

With RRIRNRPPRLPRPRPRPLFEPRP the “shrunken log2 fold change” value was 0.205.

RRIRRRPPRLPRPRPRPMLRPRP was tested, and the “shrunken log2 fold change” value was 0.854.

In the case of RRIRERPPRLPRPRPRPYCCPRP, the “shrunken log2 fold change” value is reported as -0.899.

In the case of RRIRARPPRLPRPRPRPSLLPRP, the “shrunken log2 fold change” value is reported as 0.321.

RRIRQRPPRLPRPRPRPNSMPRP was tested, and the “shrunken log2 fold change” value was -0.25.

In the case of RRIRARPPRLPRPRPRPHVFPRP, the “shrunken log2 fold change” value is reported as 0.0326.

For RRIRKRPPRLPRPRPRPTPRPRP, the “shrunken log2 fold change” value was 1.05.

RRIRMRPPRLPRPRPRPDDKPRP was tested, and the “shrunken log2 fold change” value was 1.43.

For RRIRVRPPRLPRPRPRPQWGPRP, the “shrunken log2 fold change” value was -0.149.

RRIRPRPPRLPRPRPRPDQNPRP was tested, and the “shrunken log2 fold change” value was -0.065.

With RRIRERPPRLPRPRPRPFCGPRP the “shrunken log2 fold change” value was -0.058.

With RRIRARPPRLPRPRPRPKLGPRP the “shrunken log2 fold change” value was 0.023.

In the case of RRIRARPPRLPRPRPRPWWMPRP, the “shrunken log2 fold change” value is reported as 0.0201.

RRIRMRPPRLPRPRPRPCYRPRP was tested, and the “shrunken log2 fold change” value was 0.035.

For RRIRDRPPRLPRPRPRPNTNPRP, the “shrunken log2 fold change” value was -0.448.

With RRIRVRPPRLPRPRPRPVANPRP the “shrunken log2 fold change” value was -0.0212.

In the case of RRIRSRPPRLPRPRPRPNAQPRP, the “shrunken log2 fold change” value is reported as 0.0609.

For RRIRYRPPRLPRPRPRPISGPRP, the “shrunken log2 fold change” value was 0.0356.

RRIRWRPPRLPRPRPRPTTKPRP was tested, and the “shrunken log2 fold change” value was 0.5.

With RRIRDRPPRLPRPRPRPMTLPRP the “shrunken log2 fold change” value was 0.0841.

RRIRIRPPRLPRPRPRPYEYPRP was tested, and the “shrunken log2 fold change” value was -0.0772.

With RRIRGRPPRLPRPRPRPNEEPRP the “shrunken log2 fold change” value was 0.621.

RRIRKRPPRLPRPRPRPVTQPRP was tested, and the “shrunken log2 fold change” value was 0.169.

RRIRIRPPRLPRPRPRPWRSPRP was tested, and the “shrunken log2 fold change” value was 0.00683.

With RRIRCRPPRLPRPRPRPVCEPRP the “shrunken log2 fold change” value was 0.0301.

RRIRLRPPRLPRPRPRPTPDPRP was tested, and the “shrunken log2 fold change” value was 0.626.

RRIRKRPPRLPRPRPRPCMKPRP was tested, and the “shrunken log2 fold change” value was -0.0153.

In the case of RRIRDRPPRLPRPRPRPPMDPRP, the “shrunken log2 fold change” value is reported as 0.28.

In the case of RRIRNRPPRLPRPRPRPHRQPRP, the “shrunken log2 fold change” value is reported as -0.0962.

For RRIRNRPPRLPRPRPRPPFMPRP, the “shrunken log2 fold change” value was -0.0578.

In the case of RRIRQRPPRLPRPRPRPYHWPRP, the “shrunken log2 fold change” value is reported as -0.0766.

RRIRARPPRLPRPRPRPMQLPRP was tested, and the “shrunken log2 fold change” value was 0.206.

For RRIRIRPPRLPRPRPRPQRVPRP, the “shrunken log2 fold change” value was -0.406.

In the case of RRIRLRPPRLPRPRPRPKLQPRP, the “shrunken log2 fold change” value is reported as 0.356.

RRIRWRPPRLPRPRPRPNQSPRP was tested, and the “shrunken log2 fold change” value was -0.108.

For RRIRHRPPRLPRPRPRPAWYPRP, the “shrunken log2 fold change” value was -0.0318.

With RRIRDRPPRLPRPRPRPNHSPRP the “shrunken log2 fold change” value was -0.33.

In the case of RRIRARPPRLPRPRPRPRQKPRP, the “shrunken log2 fold change” value is reported as 0.055.

With RRIRTRPPRLPRPRPRPNLYPRP the “shrunken log2 fold change” value was -0.255.

For RRIRKRPPRLPRPRPRPECQPRP, the “shrunken log2 fold change” value was 0.57.

With RRIRQRPPRLPRPRPRPDCDPRP the “shrunken log2 fold change” value was -0.0763.

RRIRQRPPRLPRPRPRPWMKPRP was tested, and the “shrunken log2 fold change” value was 0.0212.

For RRIRWRPPRLPRPRPRPQRGPRP, the “shrunken log2 fold change” value was 0.115.

RRIRRRPPRLPRPRPRPMGHPRP was tested, and the “shrunken log2 fold change” value was 0.129.

With RRIRWRPPRLPRPRPRPEMPPRP the “shrunken log2 fold change” value was 0.364.

For RRIRNRPPRLPRPRPRPNCPPRP, the “shrunken log2 fold change” value was -0.361.

For RRIRARPPRLPRPRPRPRCCPRP, the “shrunken log2 fold change” value was 0.582.

In the case of RRIRTRPPRLPRPRPRPYEIPRP, the “shrunken log2 fold change” value is reported as -0.453.

With RRIRERPPRLPRPRPRPMITPRP the “shrunken log2 fold change” value was -0.0683.

For RRIRLRPPRLPRPRPRPAPTPRP, the “shrunken log2 fold change” value was 0.28.

For RRIRMRPPRLPRPRPRPLFRPRP, the “shrunken log2 fold change” value was 1.44.

With RRIRCRPPRLPRPRPRPEWKPRP the “shrunken log2 fold change” value was 0.0169.

In the case of RRIRSRPPRLPRPRPRPHQCPRP, the “shrunken log2 fold change” value is reported as -0.325.

For RRIRSRPPRLPRPRPRPIIFPRP, the “shrunken log2 fold change” value was -0.35.

RRIRRRPPRLPRPRPRPCGIPRP was tested, and the “shrunken log2 fold change” value was 0.506.

For RRIRQRPPRLPRPRPRPHGGPRP, the “shrunken log2 fold change” value was -0.0841.

With RRIRTRPPRLPRPRPRPEHWPRP the “shrunken log2 fold change” value was -0.00863.

With RRIRPRPPRLPRPRPRPDIRPRP the “shrunken log2 fold change” value was -0.0755.

RRIRSRPPRLPRPRPRPYVTPRP was tested, and the “shrunken log2 fold change” value was -0.266.

In the case of RRIRERPPRLPRPRPRPSCDPRP, the “shrunken log2 fold change” value is reported as -0.281.

For RRIRVRPPRLPRPRPRPYMMPRP, the “shrunken log2 fold change” value was -0.00989.

For RRIRMRPPRLPRPRPRPDTTPRP, the “shrunken log2 fold change” value was 0.536.

RRIRCRPPRLPRPRPRPINCPRP was tested, and the “shrunken log2 fold change” value was -0.0582.
